In PMC5663514, “Biochemical characterization of Borrelia burgdorferi’s RecA protein”:

Target: T1, B. burgdorferi RecA (Borrelia burgdorferi B31, UniProt Q59180 1-365)
T1 sequence: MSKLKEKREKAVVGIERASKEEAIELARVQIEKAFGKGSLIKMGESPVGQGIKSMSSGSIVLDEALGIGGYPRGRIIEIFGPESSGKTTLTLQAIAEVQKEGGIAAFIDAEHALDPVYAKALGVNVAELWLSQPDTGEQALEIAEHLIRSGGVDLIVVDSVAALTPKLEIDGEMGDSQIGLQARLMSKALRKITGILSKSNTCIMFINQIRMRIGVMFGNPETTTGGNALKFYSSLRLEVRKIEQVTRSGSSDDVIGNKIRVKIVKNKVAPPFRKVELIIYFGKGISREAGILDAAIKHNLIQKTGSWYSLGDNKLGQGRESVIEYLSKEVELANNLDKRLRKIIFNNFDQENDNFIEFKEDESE
Assay: EMSA with glutaraldehyde protein-protein crosslinking; 2 mM Mg2+, 2 mM ATP; affinity increased by ATP, discrete shift and well shifts; 25 mM HEPES pH 7.6, 2 mM MgCl2, 1 mM DTT, 50 mM NaCl, +/- 2 mM ATP; 10 nM DNA molecules; 30°C 5 min, then 0.033% glutaraldehyde 5 min at 20°C/room temperature
Conditions: protein: recombinant; tags: His tag (pET15b NdeI/BamHI, Ni-NTA; N-terminal implied, removal not mentioned); single strand

B1: OGCB396 95 nt ssDNA (ssDNA)
DNA: TGCAGGCATGCAAGCTTGGCGTAATCATGGTCATAGCTGTTTCCTGTGTGAAATTGTTATCCGCTCACAATTCCACACAACATACGAGCCGGAAG
binding result: binds
